The supplement of paper PMC12764529
± gives the half width of the 95% confidence interval.

Assay: folding stability dG unfold from trypsin proteolysis; higher = more stable
Outline: (§1)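 Unfolding free energy was derived, per protease or combined, against a sequence-predicted unfolded-state K50 and a shared folded-state K50, starting from K50 inferred by Bayesian fitting of sequencing counts. Digestion with trypsin and chymotrypsin was carried out on designed mini-proteins under 80 residues without cysteine in a PA-tagged cDNA display construct. Only designs with AlphaFold2 dimer inter-PAE above 15 were kept.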

In order of rising “folding stability dG unfold” value:
1. SAGGGSMSESLSLVEEEIKVGETVVKVKRLIYPVSGTALVEITKPGGGPIGVFNTTISPSTGGVELLSAGGS [r16_798_JUSTAS]  -1.04 ± 0.17 kcal/mol
2. SAGGATIELEAEEHPETKKITIYVKSENPILTIEKIAKELKEKEDDIELTLVNEDGVPYTIKLEDLISAGGS [r8_236_TrMRF]  -0.957 ± 0.47 kcal/mol
3. SAGGSAGGMTVPITLPLDEYSPEEVEAKIKAIREEIEKKNPDKKISINVTLVPQPPEPTPENLRSAGGSAGG [r6_729_JUSTAS]  -0.745 ± 0.14 kcal/mol
4. SAGGSAMVDKTMTEEEARAFAEASGDPRVTVEPVENPNNDPNAPKKWRITVDGSGTPGSTILFTSPSAGGSA [r15_428_JUSTAS]  -0.398 ± 0.12 kcal/mol
5. SALPNLKIEITLNEDGTITITVTANGEVIATATLTVTLPPPPVEKEVLDANGNKRTVRYDAKTGKAEVFDSA [r9_343_TrROS_Hall]  0.106 ± 0.17 kcal/mol
6. SAGTVSSSFDPATGTLTITRTTSPDETVDLTLNVEVPETPATVAKVDSGGPVEGDEPVTITVELTDLKPSAG [r5_737_JUSTAS]  0.222 ± 0.075 kcal/mol
7. SAGGSAGGSKKEYLVLVYNPATGEPFPILAPDDVPFEELAKKIADEILKGLPKDVKIEFVKLGSAGGSAGGS [r20_213_TrMRF]  0.808 ± 0.086 kcal/mol
8. SMLKPGDIVKLPNGPIYVVKKLTISYDPSTSPPKLELELVPLGEPKPVLKEYTLPDGSTKTEIGYYWTGPSA [r9_914_TrMRF]  0.922 ± 0.031 kcal/mol
9. SAGEWYRMSITFDLDPDNRDQLEKIAEKIREKDGFDKIEPVEHDPSNGRVTINVYMPPEAQDKIQEALRSAG [r5_193_TrROS]  0.941 ± 0.1 kcal/mol
10. SAGGSPETKTISFKYPGNGMRIMVQVERDPADGKKKITINMENNPYMAERAKKALEELGLPVEIHPSAGGSA [r2_30_TrROS]  1.38 ± 0.13 kcal/mol
11. SAGGLLVVLPPDLTPEELREKALELAELARKAGDFEVERIELVRDEETDRPYAVLVIRDPRTGKILVASAGG [r13_669_TrMRF]  1.39 ± 0.014 kcal/mol
12. SAGGSAGGSASLDLSNATVLEEKTDPAKGLKTLTIKTPTSTLTITVEFDENGNPVKMTVFESAGGSAGGSAG [r3_5_JUSTAS]  1.71 ± 0.037 kcal/mol
13. SAGGSAGGSAGGKLILKVKVEVVSVKVEPLPGVPGEVKVEVEVKVEVELIEVSEEELKSSAGGSAGGSAGGS [r10_654_TrROS_Hall]  1.88 ± 0.26 kcal/mol
14. SAGGKKIKAKVIEIKKIGDKVLVTIERPDGSPDEVLIDKKEVAEKITPESEVEIEVFPDGSVKIKVGSAGGS [r16_2_TrMRF]  1.96 ± 0.087 kcal/mol
15. SAGGSAGGSAAKIELEDGTLRITLTRTVRDPATGETHTETLTLEIKLPPAPPPVVVVSPEDLSAGGSAGGSA [r18_501_TrROS_Hall]  2.32 ± 0.072 kcal/mol
16. SAGGSAGGSAGGEPELVFKVRVRTKDGRELEIEVSAEDLEKLLEALPDIEEVEIEEVEPSAGGSAGGSAGGS [r10_437_TrROS_Hall]  2.39 ± 0.087 kcal/mol
17. SAGGSAMSVTLTFEEPVGPGVPVKVTVTVERFPDSVKVTVTTTFPDGTVTTTPVSLKLEPAAVDLLSAGGSA [r15_263_JUSTAS]  2.44 ± 0.11 kcal/mol
18. SDKVVIHFYPGMPVSNIVERVADNPDMTIEIVMPPGMKPSWYNYIRKALRDANIPKDQKVEIEWVPYDDMSA [r9_670_TrROS]  3.11 ± 0.12 kcal/mol
19. SAGGKTIEVEIVVPPDMTPEEVAARLAAALPPGAKIRVEEVREVTGPDGRKYRIFKVTIYDEKTGEPLSAGG [r13_12_TrROS_Hall]  3.61 ± 0.14 kcal/mol
20. MKPGETKTLTLTIVDEETGETYTVKVTVTYDEDTGVVTIKAEITYPDGRKFTVTARFNRETGELTEISIEPS [r1_144_TrROS_Hall]  3.96 ± 0.087 kcal/mol
21. SAGMTITLDGVEITVERVRDEETGEWYYRVTVTVTTEDGEKVTITVTVPEGMTPEQVEALARELAEALASAG [r5_704_TrROS_Hall]  5.12 ± 0.42 kcal/mol

Assay: folding stability dG unfold from chymotrypsin proteolysis; higher = more stable
Outline: as §1

In order of rising “folding stability dG unfold” value:
1. SAGGGSMSESLSLVEEEIKVGETVVKVKRLIYPVSGTALVEITKPGGGPIGVFNTTISPSTGGVELLSAGGS [r16_798_JUSTAS]  -1.38 ± 0.57 kcal/mol
2. SAGGSAMVDKTMTEEEARAFAEASGDPRVTVEPVENPNNDPNAPKKWRITVDGSGTPGSTILFTSPSAGGSA [r15_428_JUSTAS]  -0.928 ± 0.28 kcal/mol
3. SAGTVSSSFDPATGTLTITRTTSPDETVDLTLNVEVPETPATVAKVDSGGPVEGDEPVTITVELTDLKPSAG [r5_737_JUSTAS]  -0.522 ± 0.42 kcal/mol
4. SALPNLKIEITLNEDGTITITVTANGEVIATATLTVTLPPPPVEKEVLDANGNKRTVRYDAKTGKAEVFDSA [r9_343_TrROS_Hall]  0.065 ± 0.29 kcal/mol
5. SAGEEIAKRLAEELKEKGYEVEVKVTVEYDEETGEVTITIEIKVKPKPAPPVKIEKKLEGMSEEEKKALSAG [r5_413_TrROS_Hall]  0.137 ± 0.084 kcal/mol
6. SAGGATIELEAEEHPETKKITIYVKSENPILTIEKIAKELKEKEDDIELTLVNEDGVPYTIKLEDLISAGGS [r8_236_TrMRF]  0.38 ± 0.2 kcal/mol
7. SAGGSAGGSAGLKLLEKELRVLTYDPETGSLSESTLRVPVLLVPPVPVPVLDPNGGLTLASAGGSAGGSAGG [r11_307_TrMRF]  0.407 ± 0.14 kcal/mol
8. SAGGSAGGMTVPITLPLDEYSPEEVEAKIKAIREEIEKKNPDKKISINVTLVPQPPEPTPENLRSAGGSAGG [r6_729_JUSTAS]  0.517 ± 0.023 kcal/mol
9. SAGGSPIISTEKSSSGVTTITFPDGTVVTEVTTPLPDGTVLTTTTVTPPNAPVSTTTTTDPVPPGLPSAGGS [r16_211_JUSTAS]  0.702 ± 0.027 kcal/mol
10. SAGGSAGGSKKEYLVLVYNPATGEPFPILAPDDVPFEELAKKIADEILKGLPKDVKIEFVKLGSAGGSAGGS [r20_213_TrMRF]  0.795 ± 0.061 kcal/mol
11. SAPGLRTYTIYDPSGVRRTFPPSWDVTILEYDPKTGTVTLKITKHNTDPGAPVSTETEKRKATFLRDVESAG [r14_927_JUSTAS]  0.824 ± 0.12 kcal/mol
12. SMLKPGDIVKLPNGPIYVVKKLTISYDPSTSPPKLELELVPLGEPKPVLKEYTLPDGSTKTEIGYYWTGPSA [r9_914_TrMRF]  0.995 ± 0.11 kcal/mol
13. SAGGLLVVLPPDLTPEELREKALELAELARKAGDFEVERIELVRDEETDRPYAVLVIRDPRTGKILVASAGG [r13_669_TrMRF]  1.05 ± 0.062 kcal/mol
14. SAGGSPETKTISFKYPGNGMRIMVQVERDPADGKKKITINMENNPYMAERAKKALEELGLPVEIHPSAGGSA [r2_30_TrROS]  1.14 ± 0.12 kcal/mol
15. SAGEWYRMSITFDLDPDNRDQLEKIAEKIREKDGFDKIEPVEHDPSNGRVTINVYMPPEAQDKIQEALRSAG [r5_193_TrROS]  1.25 ± 0.15 kcal/mol
16. SAGGSAGGMVKVYPIDPNTPPEAVVARLEKEFPDRPIKSVSVSTVGDVPVVTITFPDGLKVVVSSAGGSAGG [r6_492_JUSTAS]  1.43 ± 0.03 kcal/mol
17. SAGGSAGGSSMSSTVEKEPDDVLIISTKVFFDTDTYSTLTTIVEVKPPLDPSNPELLARALGLLSAGGSAGG [r6_293_JUSTAS]  1.49 ± 0.039 kcal/mol
18. SAGGSAKKDGTITIKIPVKAPKDKNGKVFKPSAEAIKAKFGELGFDFEIEEIKESETYLEIKIKVKSAGGSA [r15_225_TrMRF]  1.78 ± 0.093 kcal/mol
19. SAGGSAGGSAGGKVEIYENPSTPYLVVVVYNPETGEKTVVLFKPDNPELAEKVAKELASSAGGSAGGSAGGS [r10_1117_TrMRF]  1.81 ± 0.16 kcal/mol
20. SAGGSAGGSAGGSKTYRIYFKDNNKVITVKSKEDLKAALEKAGYTISEEDLDKIVKIEPSAGGSAGGSAGGS [r4_104_TrROS_Hall]  1.81 ± 0.07 kcal/mol
21. SMKEKALEKAKEKAEEIKKKYSNVKVKVEVKVEITPKGEIKITYKVVIEKPEKEKPYWVKYPNGPWKKIGSA [r9_82_JUSTAS]  1.86 ± 0.54 kcal/mol
22. SAGGSAGGLEIVLPREELEELIRRGEIDEVEIERSEDDLVRARPIIRPPPPLPPEVGALLRALASAGGSAGG [r6_278_TrMRF]  1.91 ± 0.088 kcal/mol
23. SVIKLPIWYPNSPAEQAEEMVQSLARKFMDKYGLKIDVEVETRRDPDGKPRWVRIEATIQYRDEDGKPIFSA [r9_21_TrROS]  2 ± 0.073 kcal/mol
24. SAGGKKIKAKVIEIKKIGDKVLVTIERPDGSPDEVLIDKKEVAEKITPESEVEIEVFPDGSVKIKVGSAGGS [r16_2_TrMRF]  2.03 ± 0.13 kcal/mol
25. SAGGSAGGSASLDLSNATVLEEKTDPAKGLKTLTIKTPTSTLTITVEFDENGNPVKMTVFESAGGSAGGSAG [r3_5_JUSTAS]  2.2 ± 0.057 kcal/mol
26. SAGKPLPKLKTYEVDVPDNKKVKIEVYKLPDGTAIVKIKDDNGNESEIEIPLSLLENLSVEDLVKLAKSAGG [r19_47_TrMRF]  2.28 ± 0.047 kcal/mol
27. SAGGSAGGSAGGKLILKVKVEVVSVKVEPLPGVPGEVKVEVEVKVEVELIEVSEEELKSSAGGSAGGSAGGS [r10_654_TrROS_Hall]  2.34 ± 0.098 kcal/mol
28. SAGGDMWMIKVEHPNGRPFQIMINPNKPEISIQFNDGETRTFPIPKDYTIEDLAKELPPGYKVEIHPMSAGG [r13_696_TrROS]  2.46 ± 0.051 kcal/mol
29. SAGGSAGGSAGGEPELVFKVRVRTKDGRELEIEVSAEDLEKLLEALPDIEEVEIEEVEPSAGGSAGGSAGGS [r10_437_TrROS_Hall]  2.68 ± 0.071 kcal/mol
30. SAGGSAMSVTLTFEEPVGPGVPVKVTVTVERFPDSVKVTVTTTFPDGTVTTTPVSLKLEPAAVDLLSAGGSA [r15_263_JUSTAS]  2.694 ± 0.022 kcal/mol
31. SAGGSAGGSAKKKKKKKKYKPKPVKIFKIKLKLKLEKTKDGLKLKIEEIEIEEIATLEKGLSAGGSAGGSAG [r3_397_TrROS_Hall]  2.72 ± 0.1 kcal/mol
32. SMKTKTVTLDLSPEDPEAARAAVEAAIAEARAADPDTEVTVTVTISPEHPELLAEIEALAAERGVSLVLGSA [r9_1202_JUSTAS]  2.84 ± 0.06 kcal/mol
33. SAGGKATVTITEVKVETETVTLKYDPETGELVEKTETVTRVEVKTITIEADKNPELAEELLKKLGIESAGGS [r16_467_TrROS_Hall]  2.93 ± 0.25 kcal/mol
34. SAGGKTIEVEIVVPPDMTPEEVAARLAAALPPGAKIRVEEVREVTGPDGRKYRIFKVTIYDEKTGEPLSAGG [r13_12_TrROS_Hall]  2.99 ± 0.072 kcal/mol
35. SAGMLRELLDNPDVKRLEIVIFIPEEDLSEEDRERARERARELAERLRELLRERGYDVEIEVRIVRLPPSAG [r5_408_TrROS_Hall]  3.22 ± 0.062 kcal/mol
36. SAGGSAGGSAAKIELEDGTLRITLTRTVRDPATGETHTETLTLEIKLPPAPPPVVVVSPEDLSAGGSAGGSA [r18_501_TrROS_Hall]  3.24 ± 0.037 kcal/mol
37. SMKIIIEIEVEPGKTEEEIKEEAEALAKELAKKLGLPKEAKVKIEKVKLEDGKLRYIITIEVDGKTIEFESA [r9_776_TrROS_Hall]  3.63 ± 0.064 kcal/mol
38. SAGGSAGGSAGGKTYRVKVRIYNPETGEVLEIEVEVETDTEEEAKRAAENLARELLKKSSAGGSAGGSAGGS [r10_863_TrROS_Hall]  3.7 ± 0.058 kcal/mol
39. SDKVVIHFYPGMPVSNIVERVADNPDMTIEIVMPPGMKPSWYNYIRKALRDANIPKDQKVEIEWVPYDDMSA [r9_670_TrROS]  3.92 ± 0.042 kcal/mol
40. SAGMTITLDGVEITVERVRDEETGEWYYRVTVTVTTEDGEKVTITVTVPEGMTPEQVEALARELAEALASAG [r5_704_TrROS_Hall]  4.37 ± 0.096 kcal/mol
41. SAGGSAGGSAGPFKIEMTFIFKKDNEYYIAKIEIEISPDGYPKMKIEIKKVDINELENYFSAGGSAGGSAGG [r11_690_TrMRF]  4.39 ± 0.14 kcal/mol
42. MKPGETKTLTLTIVDEETGETYTVKVTVTYDEDTGVVTIKAEITYPDGRKFTVTARFNRETGELTEISIEPS [r1_144_TrROS_Hall]  4.44 ± 0.075 kcal/mol
